These results are taken from the domain aggregation screens of Martell et al. (2025).
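Also: 20 min heating vs room temperature control held 20 min.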

A short description of the data set: soluble fraction after stress (log2 fold change); higher = more stays soluble; pooled small domains, quantitative proteomics. As to conditions: stress: 75 degC.
On to “HMVPDGFDQLTEREYQVAMAVGKGLNNKEIASQLGLGERTVKAHLTTTFEKLHVRDRVQLALIVNRL”, for which the “soluble fraction (log2)” value was -0.683.

“HMVPDVVGKDYALAQAELEGANLVVAKGSSRYDDTLPAGVVLATDPKVGTVVKPGAKVTVILSK”: the “soluble fraction (log2)” value was determined as 0.217.

Take “HMVPLSMLTEGQIFRGQVLDITSQGIKIQLNPEQILFARLGEQVELNIGQQMAFQVRENKGDQLIIHPMQN”: the “soluble fraction (log2)” value was -0.353.

“HMVPVQLTPRELQVARLAAHGASSPEIAAELRVSRRTVDNQLGRVYAKLGIAGRAELAAALSRLPVSV”: the “soluble fraction (log2)” value is -1.07. Then “HMVPVSIYAYNKIKTAILNNELMPGEKLVEASLAETLNMSRTPIREALRQLEQEGFVTYYPQKGSIVSH”, with -1.25; and “HMVQAQGARIREARVQRGLSQAQLGEPRYSGSYISHIENGRRSPGTDVLAFIAARLGLEPGALDS”, with -0.978. Under “HMVQIFIPVVHDDHWFLIVFSREEDTFYVLDSLPSLSRISTINGIISTLKEHLQQASVGPQYSVKVLPVK” stands 0.226. Then “HMVQLAEGERYRRIQEANDFINRQQWPGKAAMGRLKDTEKAQYNLWLDYLDALEAVDTSSAPKINWPVPPE”, with 0.2; and “HMVQQAVNMAKPGKLFTGPSPTSKALRDLDAGAMLYPTGEKQGPFWKVQDELGNEGWVAMGLLQLA”, with -0.0352; and “HMVQVDNELTEFSVQSITRGIDALGEVTIRVTAPDGGVYTGRGADNDIIVSSTKAYLNALNRLLNDK”, with 0.0321. As for “HMVQYVDFVKRMIEELPWWHRRMLELKYLDGLTYEEIADELQVPVGTVKGTLHRAKELFQEILKNN”, the “soluble fraction (log2)” value is -3.29.

Regarding “HMVRDPYELLEVPREATPDEIKSAFRKLAARHHPDRNPDDPGAQERFKEINAAYQLLSDPQKRAMFDRFGA”, the “soluble fraction (log2)” value was 0.159. For “HMVRKIQAKLVLRLHAQGLSGRAIARSQGMSRRSVSDVLDAARAVGVGWDDVTGKTDGEVYALLFPGRG”, the “soluble fraction (log2)” value is -2.66. Under “HMVRKIRARLVLQLRAEGLSGRAIAGSQGMSRKSVTAVLDAADRAGIGWDEIAERSEGEVYALLFPGRG” stands -1.46.

As for “HMVRQKYKSNFITVGDKSLTIHDWAQRLNLSQYALRNRYKEFGKEWVEKAIKTILETGDNTHIYK”, the “soluble fraction (log2)” value was -1.46. Then “HMVRSLADQVYERLRRNIVSGDLAPNARIVELDIAAQMGTSQGPVREALQRLEREGLVQRRAHSATFVTD”, with -0.554. Then “HMVRVSELAIEPRLVVEETATGFVGAVVRYANGLIELEDRHGAVRTFPLGPGYLVDGRPVSLVKPT”, with -0.577; and “HMVSEDELLARIALLPYPQAKILLEERLSHDPANAKVRQLYLELAKKSGDHTEVTRHNSLLY”, with -0.347. In the case of “HMVSKIEAPLPGIILSVDVKEGDTVKAGDKLMVMEAMKMENAILAETNGVVKSIKVKIQDSVLQGDILAEI”, the “soluble fraction (log2)” value was -0.55. Under “HMVSKSDVQRALEKVEPVLRKLGGSTVEKVRVMARQATLVFEMLKSWWKGEIDLPWKTVAAMTVTLLYL” stands -0.451; under “HMVSLNKTEFIAVKKASASELRDKINSLGLDVLKDATISADARTNQIIATGPKYALEQIKMLVVGLDVSS”, -1.4.

Turning to “HMVSLRQQVYDYLRSQMNQGELRPGSAINLGEMSSRFGISRTPLREALLQLETEGFVTIYPRKGIIVN”, the “soluble fraction (log2)” value is -1.63.

With “HMVSLTGEWRPSKDALDILITKGGINPNFIDDAVPEFILYWRDRGDVSNTWDSKFIQHVRRQWQFYTGI”, the “soluble fraction (log2)” value is -2.87. Then “HMVSMSFDDYVNDAKEYESEGDKDKAYNSYLEAYKLNKSSEEVLDYLIDNTEDVTLKLNYVYEYLDL”, with 0.00966; and “HMVSNFEAEFGRHFAIFFPGSEFTELKLRLLEEGAELIDPIRDTPFERFFFKDPNGYIFEVIDKE”, with -2.81. For “HMVSNRMVYSDFQQKWINNQVESINVNADKMTIEVTTQDEKKYTVYAPSSMIEFLNEQYPKDDIKIEYVAP”, the “soluble fraction (log2)” value was found to be 0.153. Then “HMVSPLEKSQSFGSFEISREFARTLGLTSARNWENWAASDSRPINIPYSPNVFYKNKGWIDWSDWLGTE”, with -0.279; and “HMVSRQINVIPDDLAGLRLDQALAHLFPQHSRSRLKEWLLEDIIIVQGGPKRPKDIVSGGEIVEIKL”, with -0.165. Under “HMVSYTLPTLHTGKNWYVDFTAYDPAEQKMKRKKYMLDGISKITERRKRAVDIIATVTARLRSGWNPWA” stands -2.76; under “HMVTARMPDLFGLDEATAQRMVSNAGLTLKTEYAYSDQAEGYVFDQTPEANAEVRRGGTVTAMIS”, 0.069; under “HMVTEIDYGAFIKMTEEGNIGEVKIEDNQIVFTDKENKAIYKTGIMPDSDLTQRLYDSGAVFA”, 0.128. “HMVTEKPLYRDELMDHDTVWVEPISMDSHLRMELRGWYHVKNRFVENEVGQRFYFDFYDIKWLAFTNGP”: the “soluble fraction (log2)” value was -5.45.

Take “HMVTINTASLEKAIADAKAVVKESYTTDSYNAMKAVLDEAEDLLKEEAQDQDTIDAKTEALNAAIEALVKR”: the “soluble fraction (log2)” value is 0.166. With “HMVTLPLLKRGHTGLPVKALQTLLVLRGMSVDVDGSFGEKTESAVRTFQTAAKILSDGEVGKDTWKALI”, the “soluble fraction (log2)” value was -1.56.

In the case of “HMVTPPMVVVDVQGEVKTPGVYHLPTNSRVNDAIKAAGGPKQSADLSYINQARMVKDGEQIYVEKKL”, the “soluble fraction (log2)” value is 0.0962.

As to “HMVTTDPIADMLTRIRNASSQKHKSVDVPASKEKLAIAQILFEEGYIKSFEEIKEENNQGVIRITLKYTEK”, the “soluble fraction (log2)” value was -0.733.

On to “HMVTVPNYSDPRQYVEWGNANGITINRAVGDTIASMSGRVQDVRDSNGNSVIGKKVKKGSTVTVYIYFLK”, for which the “soluble fraction (log2)” value is -1.08. Then “HMVTVSAVNITPKGHTTVGFTDRSVNPPSNYYLRVGESADGWTVKDADFDDEIATLEKDGVAITLKL”, with -0.228; and “HMVTYELTEDEKFIVSLLEKENSQPIGALKDKSALSGKKWDAAMKGLAKHGLTKVVVDGDNKLVVL”, with -0.0322; and “HMVVEDDTVLQAVKQAIEENPEAVSDYFEGKSKALNFLVGQVMRITRGKADPAKTNQMVVEELKNR”, with 0.237. Then “HMVVMKGKVKWFNKNKGYGFIITDDNKEYFVHWKSIVTNSPRELKVLEQDELVTFDLMETDKGIQAINII”, with -2.19; and “HMVVPELNLAQQDVLRALRQRGRATADHLSVDTHRPVSEVMGILLGLEIAEVLYRVEGGWFVPKTAR”, with -2.39; and “HMVVSDKIAFSSFLKSVEDGRVVEVEITGNDIRGILSDGTVFNTYAPNDPNLVEKLTSKGVNITALPKE”, with 0.522. Turning to “HMVVYQRVHDEILQALKDNVYPVGTLLPPEPELERIYSVSRTTVRRAIAKLSEEGYVQVRQGYGTMVLKN”, the “soluble fraction (log2)” value was -3.48.

In the case of “HMWGAYHDGQVVKFPKKVTVYVIDGQYKRPLANEFVLKFLNYKTSDIIIDKDGNLNNYKNGAVVEH”, the “soluble fraction (log2)” value was -2.79.

As to “HMWMQKILGNYIAARRKELGMTQANLAEKIHVTDKAVSRWERGVGLPDIENLEALAKALEVSLVSLMQGKT”, the “soluble fraction (log2)” value was -2.36. Turning to “HMWNGIVDAGKARQHLMNLSQLGVGRRAVAAASDVAETVLMDIRSGTKTRIRARTERQILAVTPEMA”, the “soluble fraction (log2)” value was -2.42.

On to “HMWNTADDIKEAIWKLIQSEDPKKPYSDLKISQLLLEKEMKISRRTVAKYRKEMGILGTYSRK”, for which the “soluble fraction (log2)” value was -0.603. In the case of “HMWQPIKLDRGDWQNSLQVGDRVFVRGIPRPVEILSAVDEENNIEVLMGTMRAKIPVYQLDKPAENFIDTT”, the “soluble fraction (log2)” value is -0.362.

Regarding “HMWQVVEVDYGTFMSMTEDGQVGRVEIQEQENLILFTDQEETTVYKTAMVDDPDLTARLHDAGIPFYGQE”, the “soluble fraction (log2)” value was -1.06. On to “HMWSGEPFLDELRHADTLLETDPEAALAEYRALADKGSAAAMMALGNAYASGSHVARDEGEAEHWYRRAA”, for which the “soluble fraction (log2)” value came out at 0.0377.

For the sequence “HMWSLLVILQLREGGQRFSQLQRAIPDISQRMLTQTLRKLERDGLVSRKVTPSTPPRVDYAITELGH”, the “soluble fraction (log2)” value was -0.841.

Regarding “HMWSQEPEYRPLYNSMDGFDAGQVVEMLQQSRIDYKVEPNSGALLVRSEDLADARLRLASAGISP”, the “soluble fraction (log2)” value came to 0.0488. Under “HMYAEVTITIEKGMTSDSVSKLLYKAGIVDDAKEFNNYIIKAGKSTKILIGEFTIQKGASYDDIIKIIA” stands -3.51; under “HMYAGTVTQVKNNKVMLEFDGETVNVGDQFFILNSDGKKVAIVEITAAKNKKALANVLKGKAVVDGTTQAK”, -0.476. Then “HMYAVDTIHKGTITEMTDKGAVVSLGDNIDGFAPARQLVKEDGTTLKLGDTADFKVIEFSKATKRITLSH”, with 0.58.

As for “HMYAVQKGDTLKKIADQFGISVDTIKWANDMKGDALSIDQELKIP”, the “soluble fraction (log2)” value stood at 0.414. Under “HMYDAEAINKFFDIENWDFGETFYFQELSAYIMNQLSPKLVTILIVPRQTTQAFGSLFEIKSEPDEIFAS” stands 0.172. Under “HMYDDEELDVLAHRPIESYTDAELAMLREVAETLLETDYEGWLKSLSMRGILLPPEILQLVT” stands -0.269; under “HMYDDLEPFDANGRLRWSDKELILAFGRHRGVTLQTLELNDPGYLRWLLSGNGPLEQQDRKRLEDILES”, -1.45.

As to “HMYDEKTLRKAVLDYVRDNDDGRLDLMKIDSYLTSRYGNIDYAALGYNRLSMFISSFPELRRNSNYVTLRK”, the “soluble fraction (log2)” value was -1.44. Then “HMYEDNERNLYSVVINFLNEHKIKISREAINLVINRSSGDKHNLKQELNKILNYSFSNKNITYETIEKLSN”, with -1.83; and “HMYEDNERSLVPIVQNFLKEKKILLSNQSINLIVQRSGGDRINLYNELQKIESFSKNQKKIDIGDIIKLTN”, with -1.03; and “HMYEDSNQSLNFFAIKFIKEKNIKISQETTNLIVERARGDRGNLINELQKLEALSLTRKKITQEDVFNLTN”, with -1.99. For the sequence “HMYEGLILINKYDSLVSAKLETNKIKSLGLFFEDMEEKIAVFSGPFKNNDINLKLDFLIRNGYLDAKIY”, the “soluble fraction (log2)” value is -4.87. Then “HMYEIEDIKEKLLDLLANSKTGFSGLEISNRLGINRITVSKYLNIFSAEGLIKQKNIGNVIIWFVEDGIE”, with -0.509; and “HMYEVDGLGIRIAQLRKKQDLTQEAFARTLGVSPQAVSKWETGIGYPDITLLPQIAKELGVSIDQLFGRN”, with -0.307; and “HMYFGDADGNKKVDAADALYLKRHLADWEDYRELPQKTNVSWMDEASPANLMILERHIAGWKDYEMLPYT”, with -0.425. Then “HMYFMDEETWESKKTLLNDWYEANPEYADRRAISDGLFKIGDLQPDFRRRHWGSIGVIFADIPNSPMG”, with -0.502.
